The results in this text go back to US20150344570A1 (published 2015).

Test [1] has as its target T1, FcγRIIIa extracellular domain with C-terminal His tag (human, UniProt P08637 17-208).
T1 construct: extracellular domain; also called FcgRIIIa; 3a
In words: SPR (Biacore); He/Con_3a divided by He/Con_2b (FcγRIIIa against FcγRIIb). The gist of the method: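 Each FcγR was diluted in HBS-EP+ and injected at 25 °C over antibody held by an antigen-peptide sensor surface. Bound antibody was stripped with 10 mM glycine-HCl, pH 1.5, so chips could be reused.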
In general terms: Surface plasmon resonance follows binding to a sensor surface in real time, without labels.

Test [2] has as its target T2, FcγRIIb extracellular domain with C-terminal His tag (human, UniProt P31994 43-217).
T2 construct: extracellular domain; Soluble receptor expressed in FreeStyle293 cells, used as analyte in Biacore; also called FcgRIIb; 2b
T2 sequence (looked up): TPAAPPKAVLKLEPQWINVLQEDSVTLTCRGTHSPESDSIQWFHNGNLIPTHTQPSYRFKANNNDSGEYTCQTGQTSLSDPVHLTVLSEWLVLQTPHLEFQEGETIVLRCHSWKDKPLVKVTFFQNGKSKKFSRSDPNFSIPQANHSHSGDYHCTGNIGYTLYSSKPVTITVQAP
In words: SPR (Biacore), antibody captured on antigen peptide chip, FcγR as analyte; GpH7-A5/GpH7-B3/GpL16-k0 = 100.

Test [3] addresses T1, FcγRIIIa extracellular domain with …. Described as above.

T1 sequence (P08637 17-208): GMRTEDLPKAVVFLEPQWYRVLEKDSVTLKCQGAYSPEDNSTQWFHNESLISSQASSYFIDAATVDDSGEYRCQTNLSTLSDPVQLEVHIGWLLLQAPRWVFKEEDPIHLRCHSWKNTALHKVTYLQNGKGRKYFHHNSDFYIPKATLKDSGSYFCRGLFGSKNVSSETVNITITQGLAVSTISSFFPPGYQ

B1: GpH7-A5/GpH7-B3 variant Q295_14T/GpL16-k0 (antibody, human IgG1, kappa)
heavy 1: not shown
heavy 2: not shown
light: DIVMTQSPLSLPVTPGEPASISCQASESLVHSNRNTYLHWYLQKPGQSPQLLIYKVSNRFSGVPDRFSGSGSGTDFTLKISRVEAEDVGVYYCSQNTHVPPTFGQGTKVEIERTVAAPSVFIFPPSDEQLKSGTASVVCLLNNFYPREAKVQWKVDNALQSGNSQESVTEQDSKDSTYSLSSTLTLSKADYEKHKVYACEVTHQGLSSPVTKSFNRGEC
notes: Heterodimerized anti-glypican-3 IgG1; mutation in the GpH7-B3 chain only; also called He Ab
Consider B1, for which, in test [1], the “He_3a/2b (IIIa/IIb)” value was 1.72 ratio. Moreover, the “He/Con_2b (relative binding activity)” value in test [2] is 66.8 % of control. Further, in test [3], the “He/Con_3a (relative binding activity)” value is 115 % of control.

B2: GpH7-A5/GpH7-B3 variant S298_16H/GpL16-k0 (antibody, human IgG1, kappa)
heavy 1: not shown
heavy 2: not shown
light: B1 light
notes: as for B1
Regarding B2, in test [1], the “He_3a/2b (IIIa/IIb)” value was determined as 1.2 ratio. In addition, the “He/Con_2b (relative binding activity)” value in test [2] is 63.5 % of control. Besides, the “He/Con_3a (relative binding activity)” value in test [3] was 76.5 % of control.

B3: GpH7-A5/GpH7-B3 variant Y300_01G/GpL16-k0 (antibody, human IgG1, kappa)
heavy 1: not shown
heavy 2: not shown
light: B1 light
notes: as for B1
Consider B3, for which, in test [1], the “He_3a/2b (IIIa/IIb)” value was 1.69 ratio. The “He/Con_2b (relative binding activity)” value in test [2] is 48.4 % of control. The “He/Con_3a (relative binding activity)” value in test [3] was 81.6 % of control.

B4: GpH7-A5/GpH7-B3 variant S298_03V/GpL16-k0 (antibody, human IgG1, kappa)
heavy 1: not shown
heavy 2: not shown
light: B1 light
notes: as for B1
With B4, the “He_3a/2b (IIIa/IIb)” value in test [1] was found to be 1.69 ratio. Also, the “He/Con_2b (relative binding activity)” value in test [2] was 64.5 % of control. In addition, the “He/Con_3a (relative binding activity)” value in test [3] is 109 % of control.

B5: GpH7-A5/GpH7-B3 variant S324_16H/GpL16-k0 (antibody, human IgG1, kappa)
heavy 1: not shown
heavy 2: not shown
light: B1 light
notes: as for B1
For the molecule B5, in test [1], the “He_3a/2b (IIIa/IIb)” value amounted to 1.24 ratio. The “He/Con_2b (relative binding activity)” value in test [2] is 83.5 % of control. The “He/Con_3a (relative binding activity)” value in test [3] was 104 % of control.

B6: GpH7-A5/GpH7-B3 variant Y300_13S/GpL16-k0 (antibody, human IgG1, kappa)
heavy 1: not shown
heavy 2: not shown
light: B1 light
notes: as for B1
On to B6, for which, in test [1], the “He_3a/2b (IIIa/IIb)” value was determined as 1.37 ratio. Further, in test [2], the “He/Con_2b (relative binding activity)” value was 53.9 % of control. Further, the “He/Con_3a (relative binding activity)” value in test [3] is 73.9 % of control.

B7: GpH7-A5/GpH7-B3 variant S298_07I/GpL16-k0 (antibody, human IgG1, kappa)
heavy 1: not shown
heavy 2: not shown
light: B1 light
notes: as for B1
B7: the “He_3a/2b (IIIa/IIb)” value in test [1] turned out to be 1.37 ratio. Also, in test [2], the “He/Con_2b (relative binding activity)” value is 70.6 % of control. Further, in test [3], the “He/Con_3a (relative binding activity)” value was 96.4 % of control.

B8: GpH7-A5/GpH7-B3 variant Y300_14T/GpL16-k0 (antibody, human IgG1, kappa)
heavy 1: not shown
heavy 2: not shown
light: B1 light
notes: as for B1
On to B8, for which the “He_3a/2b (IIIa/IIb)” value in test [1] was 1.53 ratio. Also, the “He/Con_2b (relative binding activity)” value in test [2] was 55.6 % of control. The “He/Con_3a (relative binding activity)” value in test [3] is 85.4 % of control.

B9: GpH7-A5/GpH7-B3 variant S298_04F/GpL16-k0 (antibody, human IgG1, kappa)
heavy 1: not shown
heavy 2: not shown
light: B1 light
notes: as for B1
As for B9, the “He_3a/2b (IIIa/IIb)” value in test [1] was 1.26 ratio. Further, in test [2], the “He/Con_2b (relative binding activity)” value was 65.4 % of control. For the same molecule, the “He/Con_3a (relative binding activity)” value in test [3] was 82.5 % of control.

B10: GpH7-A5/GpH7-B3 variant Y300_07I/GpL16-k0 (antibody, human IgG1, kappa)
heavy 1: not shown
heavy 2: not shown
light: B1 light
notes: as for B1
B10: the “He_3a/2b (IIIa/IIb)” value in test [1] turned out to be 1.28 ratio. Also, the “He/Con_2b (relative binding activity)” value in test [2] is 74.5 % of control. In addition, the “He/Con_3a (relative binding activity)” value in test [3] is 95.1 % of control.

B11: GpH7-A5/GpH7-B3 variant S324_19Q/GpL16-k0 (antibody, human IgG1, kappa)
heavy 1: not shown
heavy 2: not shown
light: B1 light
notes: as for B1
On to B11, for which, in test [1], the “He_3a/2b (IIIa/IIb)” value is 1.33 ratio. For the same molecule, the “He/Con_2b (relative binding activity)” value in test [2] is 66.8 % of control. The “He/Con_3a (relative binding activity)” value in test [3] is 88.5 % of control.

B12: GpH7-A5/GpH7-B3 variant S324_01G/GpL16-k0 (antibody, human IgG1, kappa)
heavy 1: not shown
heavy 2: not shown
light: B1 light
notes: as for B1
Turning to B12, in test [1], the “He_3a/2b (IIIa/IIb)” value was 1.29 ratio. Besides, the “He/Con_2b (relative binding activity)” value in test [2] is 81.1 % of control. Moreover, the “He/Con_3a (relative binding activity)” value in test [3] was 105 % of control.

B13: GpH7-A5/GpH7-B3 variant Y300_08L/GpL16-k0 (antibody, human IgG1, kappa)
heavy 1: not shown
heavy 2: not shown
light: B1 light
notes: as for B1
As for B13, in test [1], the “He_3a/2b (IIIa/IIb)” value was 1.43 ratio. In addition, the “He/Con_2b (relative binding activity)” value in test [2] was 73.6 % of control. The “He/Con_3a (relative binding activity)” value in test [3] was 105 % of control.

B14: GpH7-A5/GpH7-B3 variant S298_15Y/GpL16-k0 (antibody, human IgG1, kappa)
heavy 1: not shown
heavy 2: not shown
light: B1 light
notes: as for B1
Take B14: in test [1], the “He_3a/2b (IIIa/IIb)” value was 1.39 ratio. For the same molecule, in test [2], the “He/Con_2b (relative binding activity)” value is 61.4 % of control. Further, the “He/Con_3a (relative binding activity)” value in test [3] was 85.6 % of control.

B15: GpH7-A5/GpH7-B3 variant S324_12R/GpL16-k0 (antibody, human IgG1, kappa)
heavy 1: not shown
heavy 2: not shown
light: B1 light
notes: as for B1
Turning to B15, in test [1], the “He_3a/2b (IIIa/IIb)” value came to 1.43 ratio. Also, the “He/Con_2b (relative binding activity)” value in test [2] is 63.1 % of control. Besides, the “He/Con_3a (relative binding activity)” value in test [3] was 90.3 % of control.

B16: GpH7-A5/GpH7-B3 variant Q295_18N/GpL16-k0 (antibody, human IgG1, kappa)
heavy 1: not shown
heavy 2: not shown
light: B1 light
notes: as for B1
Regarding B16, in test [1], the “He_3a/2b (IIIa/IIb)” value is 1.26 ratio. Besides, the “He/Con_2b (relative binding activity)” value in test [2] was 64.9 % of control. The “He/Con_3a (relative binding activity)” value in test [3] was 81.6 % of control.

B17: GpH7-A5/GpH7-B3 variant S324_02A/GpL16-k0 (antibody, human IgG1, kappa)
heavy 1: not shown
heavy 2: not shown
light: B1 light
notes: as for B1
With B17, in test [1], the “He_3a/2b (IIIa/IIb)” value amounted to 1.33 ratio. Further, in test [2], the “He/Con_2b (relative binding activity)” value was 78.3 % of control. Besides, in test [3], the “He/Con_3a (relative binding activity)” value is 104 % of control.

B18: GpH7-A5/GpH7-B3 variant S324_10E/GpL16-k0 (antibody, human IgG1, kappa)
heavy 1: not shown
heavy 2: not shown
light: B1 light
notes: as for B1
For B18, in test [1], the “He_3a/2b (IIIa/IIb)” value stood at 1.28 ratio. For the same molecule, the “He/Con_2b (relative binding activity)” value in test [2] was 77.4 % of control. In addition, in test [3], the “He/Con_3a (relative binding activity)” value was 99.3 % of control.

B19: GpH7-A5/GpH7-B3 variant Q295_16H/GpL16-k0 (antibody, human IgG1, kappa)
heavy 1: not shown
heavy 2: not shown
light: B1 light
notes: as for B1
With B19, the “He_3a/2b (IIIa/IIb)” value in test [1] was 1.22 ratio. In addition, the “He/Con_2b (relative binding activity)” value in test [2] was 62.7 % of control. For the same molecule, in test [3], the “He/Con_3a (relative binding activity)” value was 76.4 % of control.

B20: GpH7-A5/GpH7-B3 variant Y296_20W/GpL16-k0 (antibody, human IgG1, kappa)
heavy 1: not shown
heavy 2: not shown
light: B1 light
notes: as for B1
On to B20, for which, in test [1], the “He_3a/2b (IIIa/IIb)” value is 1.31 ratio. In addition, the “He/Con_2b (relative binding activity)” value in test [2] is 103 % of control. Further, the “He/Con_3a (relative binding activity)” value in test [3] was 135 % of control.

B21: GpH7-A5/GpH7-B3 variant S298_14T/GpL16-k0 (antibody, human IgG1, kappa)
heavy 1: not shown
heavy 2: not shown
light: B1 light
notes: as for B1
In the case of B21, in test [1], the “He_3a/2b (IIIa/IIb)” value was determined as 1.45 ratio. Also, the “He/Con_2b (relative binding activity)” value in test [2] is 77.9 % of control. The “He/Con_3a (relative binding activity)” value in test [3] is 113 % of control.

B22: GpH7-A5/GpH7-B3 variant S298_09D/GpL16-k0 (antibody, human IgG1, kappa)
heavy 1: not shown
heavy 2: not shown
light: B1 light
notes: as for B1
With B22, the “He_3a/2b (IIIa/IIb)” value in test [1] turned out to be 1.38 ratio. Also, in test [2], the “He/Con_2b (relative binding activity)” value was 48.3 % of control. Further, the “He/Con_3a (relative binding activity)” value in test [3] is 66.7 % of control.

B23: GpH7-A5/GpH7-B3 variant S324_11K/GpL16-k0 (antibody, human IgG1, kappa)
heavy 1: not shown
heavy 2: not shown
light: B1 light
notes: as for B1
In the case of B23, the “He_3a/2b (IIIa/IIb)” value in test [1] amounted to 1.21 ratio. Besides, the “He/Con_2b (relative binding activity)” value in test [2] was 68.6 % of control. The “He/Con_3a (relative binding activity)” value in test [3] was 83 % of control.
